The source of these data is US20220056140A1 (INVECTYS, published 2022).

For assay [1], the target named is HLA-G6 recombinant protein (without β2M association) (human, UniProt P17693 25-227). In words: flow cytometry titration on HLA-G6 coated Bioplex beads. For orientation: A flow cytometer gives signals particle by particle.
Description: (§1) The binding detection was carried out by flow cytometry using a PE-conjugated goat anti-mouse antibody. […] Measurements were performed in triplicate (n=3); error bars indicate SD.
(§2) Flow cytometry analyses were performed using LSR FORTESSA (Beckton Dickinson, Le Pont-de-Claix, France); data were analyzed with FlowJo X software (Tree star, Ashland, USA).
The target in the next assay is T1, Control peptide.
T1 peptide: CTHHPVADAEATLRC
Description: flow cytometry on Bioplex beads coated with the mutated peptide, PE-conjugated goat anti-mouse antibody.

The target of assay [2] is T2, HLA-G5 recombinant protein (without β2M association) (human, UniProt P17693-5 25-319).
T2 construct: domain: α1α2α3 domains of HLA-G5; No β2M; Coupled to Bioplex beads; also called hβ2M-free HLA-G5; recombinant HLA-G5 protein
In words: flow cytometry titration on β2M-free HLA-G5 coated Bioplex beads.
Description: as §1, §2

Description for Control peptide: as §1
As specificity (negative) controls, uncoupled beads or beads coated with a mutated peptide [sequence]

B1: anti-HLA-G monoclonal antibody 15E7 (antibody, V domains shown)
VH: QVQLQQPGAELVRPGSSVKLSCKASGYTFTDYWMDWVKQRPGQGLEWIGTIYPSDSSTHYNQEFKGKATMTVDKSSSTAYMHLSSLTSEDSAVYYCAREGLAGVFYFDYWGQGTTLTVSS
VL: DVLMTQIPFSLPVSLGDQASISCRSSQSIVHRSGNTYLEWYLQKPGQSPKLLIYKVSNRFSGVPDRFSGSGSGTDFTLKISRVEAEDLGVYYCFQGSHLPPTFGGTTLEIK
notes: also called 15E7 mAb; 15E7 Mab
Consider B1, for which the EC50 (usually the concentration that produces a half-maximal response) was found to be 0.12 µg/mL in assay [1] and 0.028 µg/mL in assay [2]. Also, in the assay with Control peptide, the binding result is on record as “no binding (tested: 250 ng/ml)”.
